Measured values published in US20200223889A1 (Novo Nordisk, published 2020).
Positions of bridges follow the written chain, without caps; N, C: chain ends. Non-standard residues stand in square brackets, D forms with d. Lys(CH2CO2H)2 = N[C@@H](CCCCN(CC(=O)O)CC(=O)O)C(=O)O; Lys(Me2) = CN(C)CCCC[C@H](N)C(=O)O; Ser(ΨH,HPro) = O=C(O)[C@@H]1COCN1; Hyp = O=C(O)[C@@H]1C[C@@H](O)CN1; Orn = NCCC[C@H](N)C(=O)O; Thz = O=C(O)[C@@H]1CSCN1; Dab = NCC[C@H](N)C(=O)O

Legend:
[1] = target: T1, human melanocortin 4 receptor (human, UniProt P32245 1-332); assay: cell-based or functional assay
T1 sequence (P32245 whole entry): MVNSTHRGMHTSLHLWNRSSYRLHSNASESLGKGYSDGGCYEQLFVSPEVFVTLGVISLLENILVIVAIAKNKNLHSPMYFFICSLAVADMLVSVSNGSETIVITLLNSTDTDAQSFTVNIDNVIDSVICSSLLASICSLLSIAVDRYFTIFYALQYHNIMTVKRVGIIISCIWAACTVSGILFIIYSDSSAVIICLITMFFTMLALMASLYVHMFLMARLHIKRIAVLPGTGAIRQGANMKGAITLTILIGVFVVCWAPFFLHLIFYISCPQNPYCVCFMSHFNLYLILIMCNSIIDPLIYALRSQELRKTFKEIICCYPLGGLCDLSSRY

[2] = target: human melanocortin 1 receptor (human, UniProt Q01726 1-317); assay: cell-based or functional assay
Sequence of human melanocortin 1 receptor (Q01726 whole entry): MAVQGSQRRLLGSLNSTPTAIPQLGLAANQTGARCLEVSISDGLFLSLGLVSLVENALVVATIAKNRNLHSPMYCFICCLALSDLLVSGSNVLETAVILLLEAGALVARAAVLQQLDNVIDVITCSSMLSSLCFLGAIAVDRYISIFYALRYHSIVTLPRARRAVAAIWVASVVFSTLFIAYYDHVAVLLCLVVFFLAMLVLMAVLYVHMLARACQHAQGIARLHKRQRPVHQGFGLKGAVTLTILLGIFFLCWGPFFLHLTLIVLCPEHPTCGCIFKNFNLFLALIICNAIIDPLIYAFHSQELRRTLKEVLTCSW

[3] = target: T1, human melanocortin 4 receptor; assay: competition with 125-NDP-α-MSH, BHK human MC4R membranes
In short: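 Competition binding used membranes from BHK cells stably expressing human MC4R with ¹²⁵I-NDP-α-MSH (apx. […] final), compound at 1 μM–0.001 nM. Incubation was 2 h at 25 °C in HEPES pH 7.0 buffer with CaCl₂, MgSO₄, EGTA, Tween 20 and 0.1% HSA or ovalbumin. Filter-bound radioactivity was fitted by non-linear regression.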

| Binder | MC4R cAMP EC50 [1] | MC1R cAMP EC50 [2] | Ki [3] |
| --- | --- | --- | --- |
| cyclo(CGH[dF]RWCGH[dF]RW) (disulfide 1-7; SMILES N=C(N)NCCC[C@@H]1NC(=O)[C@@H](Cc2ccccc2)NC(=O)[C@H](Cc2c[nH]cn2)NC(=O)CNC(=O)[C@@H]2CSSC[C@H](NC(=O)[C@H](Cc3c[nH]c4ccccc34)NC1=O)C(=O)NCC(=O)N[C@@H](Cc1c[nH]cn1)C(=O)N[C@H](Cc1ccccc1)C(=O)N[C@@H](CCCNC(=N)N)C(=O)N[C@@H](Cc1c[nH]c3ccccc13)C(=O)N2, also called c[c[Cys-Gly-His-D-Phe-Arg-Trp-Cys]-Gly-His-D-Phe-Arg-Trp]) [Chem. 2] | 0.01 nM | 1.54 nM | 0.07 nM |
| cyclo(CAH[dF]KWCAH[dF]KW) (disulfide 1-7; SMILES C[C@@H]1NC(=O)[C@@H]2CSSC[C@H](NC(=O)[C@H](Cc3c[nH]c4ccccc34)NC(=O)[C@H](CCCCN)NC(=O)[C@@H](Cc3ccccc3)NC(=O)[C@H](Cc3c[nH]cn3)NC1=O)C(=O)N[C@@H](C)C(=O)N[C@@H](Cc1c[nH]cn1)C(=O)N[C@H](Cc1ccccc1)C(=O)N[C@@H](CCCCN)C(=O)N[C@@H](Cc1c[nH]c3ccccc13)C(=O)N2, also called c[c[Cys-Ala-His-D-Phe-Lys-Trp-Cys]-Ala-His-D-Phe-Lys-Trp]) [Chem. 15] | 0.09 nM | 5.43 nM | 0.12 nM |
| cyclo(C[Thz]H[dF]HWCAA[Lys(CH2CO2H)2]AW) (disulfide 1-7; SMILES C[C@@H]1NC(=O)[C@H](C)NC(=O)[C@@H]2CSSC[C@H](NC(=O)[C@H](Cc3c[nH]c4ccccc34)NC(=O)[C@H](C)NC(=O)[C@H](CCCCN(CC(=O)O)CC(=O)O)NC1=O)C(=O)N1CSC[C@H]1C(=O)N[C@@H](Cc1c[nH]cn1)C(=O)N[C@H](Cc1ccccc1)C(=O)N[C@@H](Cc1c[nH]cn1)C(=O)N[C@@H](Cc1c[nH]c3ccccc13)C(=O)N2, also called c[c[Cys-THAZ-His-D-Phe-His-Trp-Cys]-Ala-Ala-Lys(CH2COOH)2-Ala-Trp]) [Chem. 104] | 0.6 nM | > 100 nM | 8.87 nM |
| CAHFXWCAHFXW (D-Phe 4, 10; Cit 5, 11; disulphide Cys1-Cys7; head-to-tail amide Cys1-Trp12, also called c[c[Cys-Ala-His-D-Phe-Cit-Trp-Cys]-Ala-His-D-Phe-Cit-Trp]) [Chem. 19] | 0.13 nM | > 1 nM | 1.49 nM |
| cyclo(CA[Hyp][dF]RWCA[Hyp][dF]RW) (bridge 1-7 via methylene bridge (S-CH2-S), also called c[c[Cys-Ala-Hyp-D-Phe-Arg-Trp-Cys]-Ala-Hyp-D-Phe-Arg-Trp]; Note: methylene bridge) [Chem. 23] | 3.26 nM | > 10 nM | 13.6 nM |
| CAHFXWCAHFXW (D-Phe 4, 10; HArg 5, 11; disulphide Cys1-Cys7; head-to-tail amide Cys1-Trp12, also called c[c[Cys-Ala-His-D-Phe-HArg-Trp-Cys]-Ala-His-D-Phe-HArg-Trp]) [Chem. 22] | 0.02 nM | 0.22 nM | 0.06 nM |
| cyclo(C[Ser(ΨH,HPro)]H[dF]HWCAKKKW) (disulfide 1-7; SMILES C[C@@H]1NC(=O)[C@@H]2CSSC[C@H](NC(=O)[C@H](Cc3c[nH]c4ccccc34)NC(=O)[C@H](CCCCN)NC(=O)[C@H](CCCCN)NC(=O)[C@H](CCCCN)NC1=O)C(=O)N1COC[C@H]1C(=O)N[C@@H](Cc1c[nH]cn1)C(=O)N[C@H](Cc1ccccc1)C(=O)N[C@@H](Cc1c[nH]cn1)C(=O)N[C@@H](Cc1c[nH]c3ccccc13)C(=O)N2, also called c[c[Cys-OXA-His-D-Phe-His-Trp-Cys]-Ala-Lys-Lys-Lys-Trp]) [Chem. 103] | 0.05 nM | > 70 nM | 0.06 nM |
| cyclo(CAH[dF][Lys(Me2)]WCAH[dF][Lys(Me2)]W) (disulfide 1-7; SMILES C[C@@H]1NC(=O)[C@@H]2CSSC[C@H](NC(=O)[C@H](Cc3c[nH]c4ccccc34)NC(=O)[C@H](CCCCN(C)C)NC(=O)[C@@H](Cc3ccccc3)NC(=O)[C@H](Cc3c[nH]cn3)NC1=O)C(=O)N[C@@H](C)C(=O)N[C@@H](Cc1c[nH]cn1)C(=O)N[C@H](Cc1ccccc1)C(=O)N[C@@H](CCCCN(C)C)C(=O)N[C@@H](Cc1c[nH]c3ccccc13)C(=O)N2, also called c[c[Cys-Ala-His-D-Phe-Lys(Me)2-Trp-Cys]-Ala-His-D-Phe-Lys(Me)2-Trp]) [Chem. 18] | 0.12 nM | 4.22 nM | 0.38 nM |
| cyclo(CAH[dF][Dab]WCAH[dF][Dab]W) (disulfide 1-7; SMILES C[C@@H]1NC(=O)[C@@H]2CSSC[C@H](NC(=O)[C@H](Cc3c[nH]c4ccccc34)NC(=O)[C@H](CCN)NC(=O)[C@@H](Cc3ccccc3)NC(=O)[C@H](Cc3c[nH]cn3)NC1=O)C(=O)N[C@@H](C)C(=O)N[C@@H](Cc1c[nH]cn1)C(=O)N[C@H](Cc1ccccc1)C(=O)N[C@@H](CCN)C(=O)N[C@@H](Cc1c[nH]c3ccccc13)C(=O)N2, also called c[c[Cys-Ala-His-D-Phe-Dab-Trp-Cys]-Ala-His-D-Phe-Dab-Trp]) [Chem. 17] | 0.36 nM | 104 nM | 0.83 nM |
| cyclo(C[Thz]H[dF]HWCAEEAW) (disulfide 1-7; SMILES C[C@@H]1NC(=O)[C@H](CCC(=O)O)NC(=O)[C@H](CCC(=O)O)NC(=O)[C@H](C)NC(=O)[C@@H]2CSSC[C@H](NC(=O)[C@H](Cc3c[nH]c4ccccc34)NC1=O)C(=O)N1CSC[C@H]1C(=O)N[C@@H](Cc1c[nH]cn1)C(=O)N[C@H](Cc1ccccc1)C(=O)N[C@@H](Cc1c[nH]cn1)C(=O)N[C@@H](Cc1c[nH]c3ccccc13)C(=O)N2, also called c[c[Cys-THAZ-His-D-Phe-His-Trp-Cys]-Ala-Glu-Glu-Ala-Trp]) [Chem. 105] | 6.62 nM | > 100 nM | 43 nM |
| cyclo(C[Thz]H[dF]HWCAEDAW) (disulfide 1-7; SMILES C[C@@H]1NC(=O)[C@H](CC(=O)O)NC(=O)[C@H](CCC(=O)O)NC(=O)[C@H](C)NC(=O)[C@@H]2CSSC[C@H](NC(=O)[C@H](Cc3c[nH]c4ccccc34)NC1=O)C(=O)N1CSC[C@H]1C(=O)N[C@@H](Cc1c[nH]cn1)C(=O)N[C@H](Cc1ccccc1)C(=O)N[C@@H](Cc1c[nH]cn1)C(=O)N[C@@H](Cc1c[nH]c3ccccc13)C(=O)N2, also called c[c[Cys-THAZ-His-D-Phe-His-Trp-Cys]-Ala-Glu-Asp-Ala-Trp]) [Chem. 108] | 2.52 nM | > 100 nM | 23.3 nM |
| cyclo(C[Thz]H[dF]HWCADEAW) (disulfide 1-7; SMILES C[C@@H]1NC(=O)[C@H](CCC(=O)O)NC(=O)[C@H](CC(=O)O)NC(=O)[C@H](C)NC(=O)[C@@H]2CSSC[C@H](NC(=O)[C@H](Cc3c[nH]c4ccccc34)NC1=O)C(=O)N1CSC[C@H]1C(=O)N[C@@H](Cc1c[nH]cn1)C(=O)N[C@H](Cc1ccccc1)C(=O)N[C@@H](Cc1c[nH]cn1)C(=O)N[C@@H](Cc1c[nH]c3ccccc13)C(=O)N2, also called c[c[Cys-THAZ-His-D-Phe-His-Trp-Cys]-Ala-Asp-Glu-Ala-Trp]) [Chem. 107] | 10.6 nM | > 100 nM | 39.1 nM |
| cyclo(C[Thz]H[dF]HWCADDAW) (disulfide 1-7; SMILES C[C@@H]1NC(=O)[C@H](CC(=O)O)NC(=O)[C@H](CC(=O)O)NC(=O)[C@H](C)NC(=O)[C@@H]2CSSC[C@H](NC(=O)[C@H](Cc3c[nH]c4ccccc34)NC1=O)C(=O)N1CSC[C@H]1C(=O)N[C@@H](Cc1c[nH]cn1)C(=O)N[C@H](Cc1ccccc1)C(=O)N[C@@H](Cc1c[nH]cn1)C(=O)N[C@@H](Cc1c[nH]c3ccccc13)C(=O)N2, also called c[c[Cys-THAZ-His-D-Phe-His-Trp-Cys]-Ala-Asp-Asp-Ala-Trp]) [Chem. 106] | 10.6 nM | > 100 nM | 42.8 nM |
| XAHFRWXAHFRW (HCys 1, 7; D-Phe 4, 10; disulphide HCys1-HCys7; head-to-tail amide HCys1-Trp12, also called c[c[HCys-Ala-His-D-Phe-Arg-Trp-HCys]-Ala-His-D-Phe-Arg-Trp]) [Chem. 3] | 0.26 nM | 7.29 nM | 0.42 nM |
| CXHFRWCXHFRW (βAla 2, 8; D-Phe 4, 10; disulphide Cys1-Cys7; head-to-tail amide Cys1-Trp12, also called c[c[Cys-βAla-His-D-Phe-Arg-Trp-Cys]-βAla-His-D-Phe-Arg-Trp]) [Chem. 25] | 0.02 nM | 0.34 nM | 0.04 nM |
| cyclo(CAH[dF][Orn]WCAH[dF][Orn]W) (disulfide 1-7; SMILES C[C@@H]1NC(=O)[C@@H]2CSSC[C@H](NC(=O)[C@H](Cc3c[nH]c4ccccc34)NC(=O)[C@H](CCCN)NC(=O)[C@@H](Cc3ccccc3)NC(=O)[C@H](Cc3c[nH]cn3)NC1=O)C(=O)N[C@@H](C)C(=O)N[C@@H](Cc1c[nH]cn1)C(=O)N[C@H](Cc1ccccc1)C(=O)N[C@@H](CCCN)C(=O)N[C@@H](Cc1c[nH]c3ccccc13)C(=O)N2, also called c[c[Cys-Ala-His-D-Phe-Orn-Trp-Cys]-Ala-His-D-Phe-Orn-Trp]) [Chem. 16] | 0.21 nM | > 1 nM | 0.34 nM |
| cyclo(C[Hyp][dF]RWC[Hyp][dF]RW) (bridge 1-6 via methylene bridge (S-CH2-S), also called c[c[Cys-Hyp-D-Phe-Arg-Trp-Cys]-Hyp-D-Phe-Arg-Trp]; Note: methylene bridge) [Chem. 26] | 0.18 nM | 17.2 nM | 0.44 nM |
| cyclo(CAH[dF]HWCAH[dF]HW) (disulfide 1-7; SMILES C[C@@H]1NC(=O)[C@@H]2CSSC[C@H](NC(=O)[C@H](Cc3c[nH]c4ccccc34)NC(=O)[C@H](Cc3c[nH]cn3)NC(=O)[C@@H](Cc3ccccc3)NC(=O)[C@H](Cc3c[nH]cn3)NC1=O)C(=O)N[C@@H](C)C(=O)N[C@@H](Cc1c[nH]cn1)C(=O)N[C@H](Cc1ccccc1)C(=O)N[C@@H](Cc1c[nH]cn1)C(=O)N[C@@H](Cc1c[nH]c3ccccc13)C(=O)N2, also called c[c[Cys-Ala-His-D-Phe-His-Trp-Cys]-Ala-His-D-Phe-His-Trp]) [Chem. 24] | 0.49 nM | 178 nM | 0.55 nM |
| cyclo(CA[Hyp][dF]RWCA[Hyp][dF]RW) (disulfide 1-7; SMILES C[C@@H]1NC(=O)[C@@H]2CSSC[C@H](NC(=O)[C@H](Cc3c[nH]c4ccccc34)NC(=O)[C@H](CCCNC(=N)N)NC(=O)[C@@H](Cc3ccccc3)NC(=O)[C@@H]3C[C@@H](O)CN3C1=O)C(=O)N[C@@H](C)C(=O)N1C[C@H](O)C[C@H]1C(=O)N[C@H](Cc1ccccc1)C(=O)N[C@@H](CCCNC(=N)N)C(=O)N[C@@H](Cc1c[nH]c3ccccc13)C(=O)N2, also called c[c[Cys-Ala-Hyp-D-Phe-Arg-Trp-Cys]-Ala-Hyp-D-Phe-Arg-Trp]) [Chem. 14] | 3.55 nM | > 10 nM | 30.2 nM |
| CXHFRWCXHFRW (ACBC 2, 8; D-Phe 4, 10; disulphide Cys1-Cys7; head-to-tail amide Cys1-Trp12, also called c[c[Cys-ACBC-His-D-Phe-Arg-Trp-Cys]-ACBC-His-D-Phe-Arg-Trp]) [Chem. 20] | 0.04 nM | 4.97 nM | 0.15 nM |
